Results: the supplement of paper PMC9112550, “Optimization of the antimicrobial peptide Bac7 by deep mutational scanning” (BMC Biology, 2022)

Tested on: Escherichia coli TOP10
Test: shrunken log2 fold change of peptide-encoding DNA abundance (4.5 h post-induction vs induction); higher = less antimicrobial activity (less host growth inhibition)
Conditions: time post-induction: 4.5 h; library: site-saturation at positions 5, 18, 19, 20
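Also: peptides expressed intracellularly from a pBAD plasmid library in pooled LB shake-flask culture, induced with 0.3% L-arabinose, DNA abundance read by NGS, three biological replicates, DESeq2 with apeglm shrinkage.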

| Sequence | shrunken log2 fold change |
| --- | --- |
| RRIRQRPPRLPRPRPRPFKSPRP | -0.00197 |
| RRIRFRPPRLPRPRPRPGKEPRP | -0.166 |
| RRIRARPPRLPRPRPRPIFHPRP | 0.183 |
| RRIRWRPPRLPRPRPRPPSQPRP | 0.452 |
| RRIRQRPPRLPRPRPRPNQRPRP | 0.0738 |
| RRIRTRPPRLPRPRPRPGKKPRP | -0.0783 |
| RRIRRRPPRLPRPRPRPMTCPRP | 0.129 |
| RRIRQRPPRLPRPRPRPHNQPRP | -0.644 |
| RRIRARPPRLPRPRPRPSNWPRP | 0.253 |
| RRIRQRPPRLPRPRPRPRGEPRP | 0.348 |
| RRIRYRPPRLPRPRPRPLCRPRP | -0.863 |
| RRIRRRPPRLPRPRPRPHVPPRP | -0.148 |
| RRIRNRPPRLPRPRPRPRVRPRP | 0.212 |
| RRIRSRPPRLPRPRPRPTKKPRP | 0.0472 |
| RRIRRRPPRLPRPRPRPRWMPRP | 0.25 |
| RRIRQRPPRLPRPRPRPINPPRP | -0.357 |
| RRIRGRPPRLPRPRPRPIMIPRP | 0.0216 |
| RRIRARPPRLPRPRPRPAKMPRP | 0.463 |
| RRIRWRPPRLPRPRPRPFQGPRP | -0.249 |
| RRIRIRPPRLPRPRPRPGIQPRP | -0.0834 |
| RRIRGRPPRLPRPRPRPEQCPRP | 0.0643 |
| RRIRKRPPRLPRPRPRPGPIPRP | 0.204 |
| RRIRTRPPRLPRPRPRPESMPRP | 0.0954 |
| RRIRFRPPRLPRPRPRPPVMPRP | 0.0132 |
| RRIRWRPPRLPRPRPRPYNVPRP | -0.758 |

| Sequence | shrunken log2 fold change |
| --- | --- |
| RRIRARPPRLPRPRPRPARLPRP | 0.582 |
| RRIRMRPPRLPRPRPRPKQNPRP | 1.16 |
| RRIRSRPPRLPRPRPRPMHIPRP | -0.283 |
| RRIRGRPPRLPRPRPRPDYNPRP | -0.12 |
| RRIRMRPPRLPRPRPRPYKAPRP | 0.00361 |
| RRIRNRPPRLPRPRPRPEHSPRP | 0.0507 |
| RRIRIRPPRLPRPRPRPVHLPRP | -0.0973 |
| RRIRERPPRLPRPRPRPKMNPRP | -0.642 |
| RRIRCRPPRLPRPRPRPSCKPRP | -0.685 |
| RRIRNRPPRLPRPRPRPDDNPRP | -0.0156 |
| RRIRIRPPRLPRPRPRPYPCPRP | -0.028 |
| RRIRIRPPRLPRPRPRPYTPPRP | -0.825 |
| RRIRERPPRLPRPRPRPCGFPRP | -0.303 |
| RRIRMRPPRLPRPRPRPLAMPRP | 0.548 |
| RRIRLRPPRLPRPRPRPDTIPRP | -0.21 |
| RRIRWRPPRLPRPRPRPTWYPRP | 0.27 |
| RRIRLRPPRLPRPRPRPSVCPRP | 0.0879 |
| RRIRFRPPRLPRPRPRPTLIPRP | -0.19 |
| RRIRYRPPRLPRPRPRPQPLPRP | -0.00898 |
| RRIRARPPRLPRPRPRPEMQPRP | 1.66 |
| RRIRFRPPRLPRPRPRPNESPRP | 0.0698 |
| RRIRDRPPRLPRPRPRPEFIPRP | 0.163 |
| RRIRYRPPRLPRPRPRPFSPPRP | -0.319 |
| RRIRIRPPRLPRPRPRPNWWPRP | 0.159 |
| RRIRGRPPRLPRPRPRPQRDPRP | 0.419 |

| Sequence | shrunken log2 fold change |
| --- | --- |
| RRIRSRPPRLPRPRPRPTWFPRP | -0.216 |
| RRIRRRPPRLPRPRPRPFNKPRP | -0.712 |
| RRIRGRPPRLPRPRPRPYRNPRP | -0.39 |
| RRIRIRPPRLPRPRPRPGWPPRP | 0.353 |
| RRIRCRPPRLPRPRPRPFSQPRP | -0.209 |
| RRIRNRPPRLPRPRPRPNAVPRP | 0.266 |
| RRIRTRPPRLPRPRPRPGIKPRP | -0.162 |
| RRIRPRPPRLPRPRPRPTFYPRP | -0.235 |
| RRIRKRPPRLPRPRPRPSHLPRP | -0.124 |
| RRIRMRPPRLPRPRPRPDQIPRP | 0.0408 |
| RRIRYRPPRLPRPRPRPFKYPRP | -0.689 |
| RRIRKRPPRLPRPRPRPTFQPRP | 0.05 |
| RRIRNRPPRLPRPRPRPQTQPRP | 0.153 |
| RRIRCRPPRLPRPRPRPNSKPRP | 0.297 |
| RRIRFRPPRLPRPRPRPHILPRP | -0.345 |
| RRIRHRPPRLPRPRPRPKWDPRP | -0.00576 |
| RRIRWRPPRLPRPRPRPCGNPRP | 0.0696 |
| RRIRRRPPRLPRPRPRPWRSPRP | 0.181 |
| RRIRSRPPRLPRPRPRPWMYPRP | -0.0974 |
| RRIRERPPRLPRPRPRPHDCPRP | -0.715 |
| RRIRMRPPRLPRPRPRPKCLPRP | 0.148 |
| RRIRDRPPRLPRPRPRPECEPRP | 1.53 |
| RRIRQRPPRLPRPRPRPRVSPRP | -0.0909 |
| RRIRDRPPRLPRPRPRPTMHPRP | 0.61 |
| RRIRYRPPRLPRPRPRPQYGPRP | -0.161 |

| Sequence | shrunken log2 fold change |
| --- | --- |
| RRIRERPPRLPRPRPRPLQHPRP | 0.159 |
| RRIRVRPPRLPRPRPRPRSIPRP | 3.22 |
| RRIRDRPPRLPRPRPRPAWGPRP | 0.769 |
| RRIRGRPPRLPRPRPRPQNCPRP | 0.0394 |
| RRIRPRPPRLPRPRPRPFSAPRP | 0.0672 |
| RRIRKRPPRLPRPRPRPGTLPRP | 0.0624 |
| RRIRTRPPRLPRPRPRPNIKPRP | -0.828 |
| RRIRLRPPRLPRPRPRPRGFPRP | 0.124 |
| RRIRERPPRLPRPRPRPCNYPRP | -0.746 |
| RRIRIRPPRLPRPRPRPKIQPRP | -0.196 |
| RRIRKRPPRLPRPRPRPKTIPRP | 0.0745 |
| RRIRVRPPRLPRPRPRPIDTPRP | -0.48 |
| RRIRFRPPRLPRPRPRPNHNPRP | -0.711 |
| RRIRGRPPRLPRPRPRPYCTPRP | -0.0267 |
| RRIRTRPPRLPRPRPRPWYCPRP | -0.153 |
| RRIRARPPRLPRPRPRPWPDPRP | 0.17 |
| RRIRARPPRLPRPRPRPVWRPRP | 0.873 |
| RRIRNRPPRLPRPRPRPEFLPRP | 0.00817 |
| RRIRNRPPRLPRPRPRPTMHPRP | -0.159 |
| RRIRLRPPRLPRPRPRPAHGPRP | -0.0453 |
| RRIRLRPPRLPRPRPRPIRCPRP | -0.0375 |
| RRIRQRPPRLPRPRPRPYDMPRP | -0.626 |
| RRIRLRPPRLPRPRPRPTWQPRP | 0.187 |
| RRIRPRPPRLPRPRPRPAHRPRP | 0.384 |
| RRIRGRPPRLPRPRPRPESFPRP | 0.0921 |

| Sequence | shrunken log2 fold change |
| --- | --- |
| RRIRHRPPRLPRPRPRPQRAPRP | 0.205 |
| RRIRVRPPRLPRPRPRPPMTPRP | 0.209 |
| RRIRFRPPRLPRPRPRPGVIPRP | -0.356 |
| RRIRARPPRLPRPRPRPMEHPRP | -0.223 |
| RRIRFRPPRLPRPRPRPLYPPRP | -0.205 |
| RRIRNRPPRLPRPRPRPNWIPRP | -0.0612 |
| RRIRARPPRLPRPRPRPPSPPRP | 0.669 |
| RRIRLRPPRLPRPRPRPPFNPRP | -0.116 |
| RRIRYRPPRLPRPRPRPCVWPRP | -0.0563 |
| RRIRARPPRLPRPRPRPDMEPRP | -0.0243 |
| RRIRTRPPRLPRPRPRPPGTPRP | 0.331 |
| RRIRWRPPRLPRPRPRPERVPRP | 0.447 |
| RRIRMRPPRLPRPRPRPHIWPRP | -0.0244 |
| RRIRKRPPRLPRPRPRPIYPPRP | -0.0542 |
| RRIRSRPPRLPRPRPRPLRPPRP | 0.953 |
| RRIRDRPPRLPRPRPRPVANPRP | -0.0229 |
| RRIRERPPRLPRPRPRPWTMPRP | 0.0606 |
| RRIRIRPPRLPRPRPRPMMQPRP | -0.0907 |
| RRIRGRPPRLPRPRPRPEVCPRP | 0.955 |
| RRIRLRPPRLPRPRPRPISTPRP | -0.161 |
| RRIRNRPPRLPRPRPRPTSRPRP | -0.129 |
| RRIRYRPPRLPRPRPRPPEGPRP | -0.455 |
| RRIRIRPPRLPRPRPRPIAWPRP | 0.0253 |
| RRIRLRPPRLPRPRPRPDIAPRP | 0.024 |
| RRIRARPPRLPRPRPRPRAAPRP | 0.826 |

| Sequence | shrunken log2 fold change |
| --- | --- |
| RRIRFRPPRLPRPRPRPRSLPRP | 0.0152 |
| RRIRGRPPRLPRPRPRPWHIPRP | -0.111 |
| RRIRIRPPRLPRPRPRPVDLPRP | 0.0939 |
| RRIRLRPPRLPRPRPRPFKYPRP | -0.482 |
| RRIRSRPPRLPRPRPRPWWSPRP | -0.237 |
| RRIRPRPPRLPRPRPRPCRYPRP | 0.0858 |
| RRIRKRPPRLPRPRPRPMIIPRP | -0.0318 |
| RRIRTRPPRLPRPRPRPPSHPRP | -0.143 |
| RRIRPRPPRLPRPRPRPELLPRP | 0.14 |
| RRIRERPPRLPRPRPRPRQYPRP | -0.369 |
| RRIRMRPPRLPRPRPRPWFGPRP | 0.134 |
| RRIRRRPPRLPRPRPRPMPTPRP | 0.178 |
| RRIRPRPPRLPRPRPRPWLSPRP | -0.119 |
| RRIRRRPPRLPRPRPRPDMTPRP | 0.0544 |
| RRIRIRPPRLPRPRPRPAWFPRP | -0.00823 |
| RRIRHRPPRLPRPRPRPKRVPRP | -0.0983 |
| RRIRTRPPRLPRPRPRPLPCPRP | 0.0112 |
| RRIRVRPPRLPRPRPRPYMAPRP | -0.629 |
| RRIRVRPPRLPRPRPRPKRIPRP | -0.114 |
| RRIRGRPPRLPRPRPRPMRMPRP | 1.4 |
| RRIRGRPPRLPRPRPRPQWLPRP | 0.136 |
| RRIRSRPPRLPRPRPRPERMPRP | 0.263 |
| RRIRKRPPRLPRPRPRPTWNPRP | 0.197 |
| RRIRFRPPRLPRPRPRPYLEPRP | -0.0738 |
| RRIRVRPPRLPRPRPRPHKLPRP | -0.317 |
